Tests used:
[1] = Pharmacokinetics of IMP321 after s.c. injection in cancer patients; format: in vivo, human; conditions: for at least 24 hours after s.c. injection; patients injected with IMP321 doses of more than 6 mg
Description: (§1) Doses of 6-30 mg per subcutaneous (s.c.) injection of IMP321 have been shown, thus far, to be safe and provide an acceptable systemic exposure based on the results of pharmacokinetics data obtained in cancer patients.

[2] = Safety of s.c. IMP321 in cancer patients; format: in vivo, human
Description: as §1

B1: IMP321: recombinant soluble human LAG-3Ig fusion protein, 160-kDa dimer: extracellular domain of hLAG-3 fused to human IgG1 Fc; APC activator (protein)
chain: LQPGAEVPVVWAQEGAPAQLPCSPTIPLQDLSLLRRAGVTWQHQPDSGPPAAAPGHPLAPGPHPAAPSSWGPRPRRYTVLSVGPGGLRSGRLPLQPRVQLDERGRQRGDFSLWLRPARRADAGEYRAAVHLRDRALSCRLRLRLGQASMTASPPGSLRASDWVILNCSFSRPDRPASVHWFRNRGQGRVPVRESPHHHLAESFLFLPQVSPMDSGPWGCILTYRDGFNVSIMYNLTVLGLEPPTPLTVYAGAGSRVGLPCRLPAGVGTRSFLTAKWTPPGGGPDLLVTGDNGDFTLRLEDVSQAQAGTYTCHIHLQEQQLNATVTLAIITVTPKSFGSPGSLGKLLCEVTPVSGQERFVWSSLDTPSQRSFSGPWLEAQEAQLLSQPWQCQLYQGERLLGAAVYFTELSSPG
modifications: left off: small tags and cut ends; a dimerising Fc or GST
[1]
  blood concentration of IMP321: > 1 ng/mL
[2]; doses of 6-30 mg per s.c. injection
  safety / acceptable systemic exposure: safe
[2]; to date
  dose limiting toxicity: No dose limiting toxicity has been observed

— patent US20240277804A1, “TRIPLE COMBINATION THERAPY” (Immutep S.A.S., priority 2021, published 2024)
